One may read the Kd as the constant that tells how readily two partners part at equilibrium. Higher therefore signals a looser complex.

One molecule from paper PMC4103192 (Biochemical and biophysical research communications, 2010) can be followed below.

The series “SEC” concerns the molecule itself. The experiment in a line: SEC.
Series [1] concerns the target human hepatic cytochrome P450 CYP3A4 in POPC Nanodiscs (human) (UniProt P08684). The experiment in a line: SEC.
Series [2] shares this target. The experiment in a line: steady-state enzyme activity titration.

B1: full-length rat NADPH dependent cytochrome P450 reductase (enzyme, UniProt P00388 1-678, looked up)
chain: MGDSHEDTSATMPEAVAEEVSLFSTTDMVLFSLIVGVLTYWFIFRKKKEEIPEFSKIQTTAPPVKESSFVEKMKKTGRNIIVFYGSQTGTAEEFANRLSKDAHRYGMRGMSADPEEYDLADLSSLPEIDKSLVVFCMATYGEGDPTDNAQDFYDWLQETDVDLTGVKFAVFGLGNKTYEHFNAMGKYVDQRLEQLGAQRIFELGLGDDDGNLEEDFITWREQFWPAVCEFFGVEATGEESSIRQYELVVHEDMDVAKVYTGEMGRLKSYENQKPPFDAKNPFLAAVTANRKLNQGTERHLMHLELDISDSKIRYESGDHVAVYPANDSALVNQIGEILGADLDVIMSLNNLDEESNKKHPFPCPTTYRTALTYYLDITNPPRTNVLYELAQYASEPSEQEHLHKMASSSGEGKELYLSWVVEARRHILAILQDYPSLRPPIDHLCELLPRLQARYYSIASSSKVHPNSVHICAVAVEYEAKSGRVNKGVATSWLRAKEPAGENGGRALVPMFVRKSQFRLPFKSTTPVIMVGPGTGIAPFMGFIQERAWLREQGKEVGETLLYYGCRRSDEDYLYREELARFHKDGALTQLNVAFSREQAHKVYVQHLLKRDREHLWKLIHEGGAHIYVCGDARNMAKDVQNTFYDIVAEFGPMEHTQAVDYVKKLMTKGRYSLDVWS
In the case of B1, the binding result in the series “SEC” is reported as “binds”. For the same molecule, in series [1], the stoichiometry N (CPR per CYP3A4) amounted to 1. For the same molecule, in series [2], the dissociation constant (Kd) is 10 to 50 nM.
